This is an account of results in article PMC4520771 (Journal of structural biology, 2015).

This data set concerns the molecule itself. Put plainly: SEC. On the technique in general: In gel filtration, larger molecules generally elute earlier.

B1: EspB_(1-338), N-terminal EspB fragment (domain or fragment)
chain: MTQSQTVTVDQQEILNRANEVEAPMADPPTDVPITPCELTAAKNAAQQLVLSADNMREYLAAGAKERQRLATSLRNAAKAYGEVDEEAATALDNDGEGTVQAESAGAVGGDSSAELTDTPRVATAGEPNFMDLKEAARKLETGDQGASLAHFADGWNTFNLTLQGDVKRFRGFDNWEGDAATACEASLDQQRQWILHMAKLSAAMAKQAQYVAQLHVWARREHPTYEDIVGLERLYAENPSARDQILPVYAEYQQRSEKVLTEYNNKAALEPVNPPKPPPAIKIDPPPPPQEQGLIPGFLMPPSDGSGVTPGTGMPAAPMVPPTGSPGGGLPADTAAQ
In the case of B1, the binding result is “binds”.
